According to US20100048462A1, “TRUNCATED PTH PEPTIDES WITH A CYCLIC CONFORMATION” (Zealand Pharma A/S, priority 2006, published 2010):
Bridge positions count the residues as written; N and C are the ends. Square brackets hold non-standard residues; d marks the D form. Peptide text beside a SMILES is read from it. I, II: the chains in the order shown. hArg = N=C(N)NCCCC[C@H](N)C(=O)O; Met(O) = CS(=O)CC[C@H](N)C(=O)O; Ac5c = NC1(C(=O)O)CCCC1; Aib = CC(C)(N)C(=O)O

Key:
[1] = target: T1, Saos-2 PTH1R (Homo sapiens, UniProt Q03431); experiment: cAMP-efficacy assay in Saos-2 cells; assay type: cell-based; details: for EC50: cAMP, 100 μM IBMX, 37° C. 15 min, suffix of label = salt tested; for Emax ± SEM: relative effect to the control (SEQ ID NO: 32)
T1 construct: endogenous in cells; host or cells: Saos-2
T1 sequence (Q03431 27-593): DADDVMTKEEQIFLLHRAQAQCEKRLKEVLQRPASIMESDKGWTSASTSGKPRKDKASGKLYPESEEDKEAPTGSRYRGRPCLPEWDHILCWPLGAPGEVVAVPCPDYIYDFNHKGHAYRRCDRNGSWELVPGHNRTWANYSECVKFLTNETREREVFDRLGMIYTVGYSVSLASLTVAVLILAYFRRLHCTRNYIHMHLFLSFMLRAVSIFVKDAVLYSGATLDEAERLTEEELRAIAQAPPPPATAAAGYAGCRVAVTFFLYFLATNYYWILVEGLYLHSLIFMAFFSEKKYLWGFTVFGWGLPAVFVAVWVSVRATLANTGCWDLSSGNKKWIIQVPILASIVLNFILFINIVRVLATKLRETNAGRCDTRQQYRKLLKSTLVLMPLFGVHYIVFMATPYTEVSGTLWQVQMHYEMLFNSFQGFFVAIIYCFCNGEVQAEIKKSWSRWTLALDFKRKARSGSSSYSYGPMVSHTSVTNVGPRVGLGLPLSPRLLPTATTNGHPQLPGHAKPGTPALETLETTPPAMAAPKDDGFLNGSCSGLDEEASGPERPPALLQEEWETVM
Experimental: Peptides were dissolved in phosphate buffered saline and further diluted in Tyrode's buffer (TB, Sigma-Aldrich) containing 0.1% BSA and 100 μM isobutyl-methyl-xanthine (IBMX, Sigma-Aldrich). Saos-2 cells were seeded at 50,000 cells/well in 96-microtiter plates and grown for two days before the efficacy assays. On the day of analysis, the growth medium was carefully removed by suction. Cells were washed once with 200 μl TB/0.1% BSA. The buffer was replaced with 100 μl reaction mixture (±test peptide), and incubated at 37° C. for 15 min. The reaction was stopped by addition of 25 μl of ice-cold 0.5 M HCl. Cells were in the following incubated on ice for 60 min. 75 μl acetate-buffer, pH6.2, was added to each well of a 96-well cAMP FlashPlate (Perkin-Elmer). […] FlashPlates were incubated overnight at 4° C., emptied by suction and counted in a TopCounter (Packard).
Determinations were performed in single determinations or triplicates at all doses. […] Standards were included as single determinations, duplicates or triplicates in each experiment, preferentially on each plate.
Concentration-dependent cAMP responses were imported into GraphPad Prism vers. 4 (GraphPad Software), transformed and plotted. […] Thus, a four-parameter logistic equation was used for determination of the EC50 values. Curves were fitted with a function for sigmoidal dose response curve (variable slope) non-linear fit Y=Bottom+(Top-Bottom)/(1+10̂((LogEC50−X)*HillSlope)) where X is the logarithm of concentration and Y is the response. Y starts at Bottom and goes to Top with a sigmoid shape. pEC50, Hill-coefficient and the maximally inducible concentration of cAMP (Emax) were evaluated.
Overall statistical differences were analyzed with Statistica (Statsoft) using one-way ANOVA. Post-hoc comparisons were made by the use of Fisher's Least Significance Test. Results were considered significant, when p was lower than 0.05.

[2] = target: Saos-2 PTH1R (UniProt Q03431); experiment: cell-based or functional assay

With `CC[C@H](C)[C@H](NC(=O)[C@H](CCC(=O)O)NC(=O)C(C)(C)NC(=O)[C@@H](NC(=O)C1(N)CCCC1)C(C)C)C(=O)N[C@@H](CCC(N)=O)C(=O)N[C@@H](CC(C)C)C(=O)N[C@@H](CCSC)C(=O)N[C@@H](Cc1c[nH]cn1)C(=O)N[C@@H](CCC(N)=O)C(=O)N[C@@H](CCCCNC(=N)N)C(=O)N[C@@H](C)C(=O)N[C@@H](CCCCN)C(=O)N[C@@H](Cc1c[nH]c2ccccc12)C(=O)N[C@@H](CC(C)C)C(=O)N[C@@H](CC(N)=O)C(=O)N[C@@H](CC(=O)O)C(=O)O` [SEQ ID NO: 38, H-Ac5c-Val-Aib-Glu-Ile-Gln-Leu-Met-His-Gln-Har-Ala-Lys-Trp-Leu-Asn-Asp-OH] (H-[Ac5c]V[Aib]EIQLMHQ[hArg]AKWLND-OH) the EC50 [1] was 100 nM and the “Emax ± SEM” value [1] was 1.2.

In the case of `CC[C@H](C)[C@H](NC(=O)[C@H](CCC(=O)O)NC(=O)C(C)(C)NC(=O)[C@@H](NC(=O)C1(N)CCCC1)C(C)C)C(=O)N[C@@H](CCC(N)=O)C(=O)N[C@@H](CC(C)C)C(=O)N[C@@H](CCSC)C(=O)N[C@@H](Cc1c[nH]cn1)C(=O)N[C@@H](CCC(N)=O)C(=O)N[C@@H](CCCCNC(=N)N)C(=O)N[C@@H](C)C(=O)N[C@H]1CCCCNC(=O)C[C@@H](C(N)=O)NC(=O)[C@H](CC(N)=O)NC(=O)[C@H](CC(C)C)NC(=O)[C@H](Cc2c[nH]c3ccccc23)NC(=O)[C@@H](NC(=O)[C@H](C)NC(=O)[C@H](CCCCNC(=N)N)NC(=O)[C@H](CCC(N)=O)NC(=O)[C@H](Cc2c[nH]cn2)NC(=O)[C@H](CCSC)NC(=O)[C@H](CC(C)C)NC(=O)[C@H](CCC(N)=O)NC(=O)[C@@H](NC(=O)[C@H](CCC(=O)O)NC(=O)C(C)(C)NC(=O)[C@@H](NC(=O)C2(N)CCCC2)C(C)C)[C@@H](C)CC)CCCCNC(=O)C[C@@H](C(N)=O)NC(=O)[C@H](CC(N)=O)NC(=O)[C@H](CC(C)C)NC(=O)[C@H](Cc2c[nH]c3ccccc23)NC1=O` [SEQ ID NO: 39, (H-Ac5c-Val-Aib-Glu-Ile-Gln-Leu-Met-His-Gln-Har-Ala-Lys( )-Trp-Leu-Asn-Asp( )-NH2)2] (I: H-[Ac5c]V[Aib]EIQLMHQ[hArg]AKWLND-NH2 / II: H-[Ac5c]V[Aib]EIQLMHQ[hArg]AKWLND-NH2; amide I:13-II:17, I:17-II:13), the “Emax ± SEM” value [1] is reported as 0.95 ± 0.05.

`CC[C@H](C)[C@H](NC(=O)[C@H](CCC(=O)O)NC(=O)C(C)(C)NC(=O)[C@@H](NC(=O)C1(N)CCCC1)C(C)C)C(=O)N[C@@H](CCC(N)=O)C(=O)N[C@@H](CC(C)C)C(=O)N[C@@H](CC[S+](C)[O-])C(=O)N[C@@H](Cc1c[nH]cn1)C(=O)N[C@@H](CCC(N)=O)C(=O)N[C@@H](CCCCNC(=N)N)C(=O)N[C@@H](C)C(=O)N[C@H]1CCCCNC(=O)C[C@@H](C(N)=O)NC(=O)[C@H](CC(N)=O)NC(=O)[C@H](CC(C)C)NC(=O)[C@H](Cc2c[nH]c3ccccc23)NC1=O` (stereo partly drawn) [SEQ ID NO: 40, H-Ac5c-Val-Aib-Glu-Ile-Gln-Leu-Met(O)-His-Gln-Har-Ala-Lys( )-Trp-Leu-Asn-Asp( )-NH2] (H-[Ac5c]V[Aib]EIQL[Met(O)]HQ[hArg]AKWLND-NH2; lactam 13-17) was tested, and the EC50 [1] was 126 nM and the “Emax ± SEM” value [1] was 1.1.

For “(H-Ac5c-Val-Aib-Glu-Ile-Gln-Leu-Met-His-Gln-Har-Ala-Lys( )-Trp-Leu-Asn-Asp( )-NH2)2 (peptide)”, the Emax, cAMP efficacy assay in Saos-2 cells (39T, trifluoroacetate salt) (relative to control (SEQ ID NO: 32)) [2] was 0.95 and the pEC50, cAMP efficacy assay in Saos-2 cells (39T, trifluoroacetate salt) [2] was 8.3 -log(M).

In the case of “H-Ac5c-Val-Ac5c-Glu-Ile-Gln-Leu-Leu-His-Gln-Har-Ala-Lys( )-Trp-Leu-Asn-Asp( )-NH2 (peptide)”, the Emax, cAMP efficacy assay in Saos-2 cells (14T, trifluoroacetate salt) (relative to control (SEQ ID NO: 32)) [2] is reported as 1.03 and the pEC50, cAMP efficacy assay in Saos-2 cells (14T, trifluoroacetate salt) [2] is reported as 7.45 -log(M).

For “H-Ac5c-Val-Aib-Glu-Ile-Gln-Leu-Leu-His-Gln-Har-Ala-Lys( )-Trp-Leu-Asp-Asp( )-NH2 (peptide)”, the Emax, cAMP efficacy assay in Saos-2 cells (22T, trifluoroacetate salt) (relative to control (SEQ ID NO: 32)) [2] was 1.08 and the pEC50, cAMP efficacy assay in Saos-2 cells (22T, trifluoroacetate salt) [2] was 7.13 -log(M).

For “H-Ac5c-Val-Aib-Glu-Ile-Gln-Leu-Leu-His-Gln-Har-Arg-Lys( )-Trp-Leu-Asn-Asp( )-NH2 (peptide)”, the Emax, cAMP efficacy assay in Saos-2 cells (28T, trifluoroacetate salt) (relative to control (SEQ ID NO: 32)) [2] was 0.95 and the pEC50, cAMP efficacy assay in Saos-2 cells (28T, trifluoroacetate salt) [2] was 8.27 -log(M).

In the case of “H-Ac5c-Val-Aib-Glu-Ile-Gln-Leu-Met-His-Gln-Har-Ala-Asp( )-Trp-Leu-Asn-Lys( )-NH2 (peptide)”, the Emax, cAMP efficacy assay in Saos-2 cells (6T, trifluoroacetate salt) (relative to control (SEQ ID NO: 32)) [2] is reported as 1.5 and the pEC50, cAMP efficacy assay in Saos-2 cells (6T, trifluoroacetate salt) [2] is reported as 6.9 -log(M).
